Tests used:
[1] = Native gel after storage in freezer (-80 degrees Celsius) and thawing; format: physicochemical; settings: ferritin cages with doxorubicin, mutants of b203
[2] = Native PAGE gel after doxorubicin encapsulation and purification; format: physicochemical; settings: after doxorubicin encapsulation; mutants carry added K54E, K72E, K87Q, K144E, C91S, C103S
Excerpt: Native PAGE gel has been performed in order to check the size of the protein after encapsulation and purification.

[3] = tested on: MDA-MB 231, Skov3 and 4T1; assay: Tumour cell viability after 72 h co-culture with macrophages carrying doxorubicin packed ferritin; format: cell-based; settings: ferritin cages filled with doxorubicin 1 mg/ml
Procedure: FIG. 7: Graphs of tumour cell viability after 72 h co-culture with macrophages. The concentration of ferritin cages filled with doxorubicin was the same for each variant of ferritin and was equal to 1 mg/ml.
The doxorubicin packed proteins were inserted into macrophages and then co-cultured with breast and ovarian cancer cell lines: MDA-MB 231, Skov3 and 4T1. The number of viable cells after co-culture was the lowest for the Q11E-Q15E mutant (FIG. 7).

B1: Q11E-Q15E mutant: Examples 3-8 ferritin variant based on Q11E-Q15E with added K54E, K72E, K87Q, K144E, C91S and C103S (protein, UniProt P02794 1-183, looked up, variant Q11E Q15E K54E K72E K87Q K144E C91S C103S)
Ferritin heavy chain: MTTASTSQVRENYHEDSEAAINRQINLELYASYVYLSMSYYFDRDDVALKNFAEYFLHQSHEEREHAEKLMELQNQRGGRIFLQDIQKPDSDDWESGLNAMESALHLEKNVNQSLLELHKLATDKNDPHLCDFIETHYLNEQVEAIKELGDHVTNLRKMGAPESGLAEYLFDKHTLGDSDNES
modifications: doxorubicin-loaded form also
aggregation of cages after storage [1]: still present as 24-mers (homogeneous cages) after storage | forms on native gel (aggregates versus 24-mers) [2]: present as 24-mers (homogeneous cages) | number of viable cells after co-culture [3]: lowest

Reference: patent US20240158472A1, “FERRITIN VARIANTS WITH INCREASED STABILITY AND COMPLEXATION ABILITY” (Cellis AG, priority 2021, published 2024)
